Where no end group is shown, it is not given here.
Assays:
[1] = biological target: T1, CD28 (Homo sapiens, UniProt P10747); experiment: Jurkat/IL2 + CHO/OKT3 +/- PD-L1 reporter assay: PD-L1-dependent CD28 costimulation; format: cell-based; parameters: host or cells: Jurkat cells expressing an IL-2-luciferase reporter
Method: Jurkat cells were then plated at 50 μL/well for a total of 100,000 cells per well.
To each well, 25 μL of test protein was added to the Jurkat cells. […] The Jurkat cells with test or control proteins were incubated for 15 minutes at room temperature. CHO-derived artificial antigen presenting cells (aAPC) displaying transduced cell surface anti-CD3 single chain Fv (OKT3) (i.e., no PD-L1), or OKT3 and PD-L1 (i.e., +PD-L1), were brought to 0.8×10^6 cells/mL, and 25 μL of cells were added to each well, bringing the final volume of each well to 100 μL. […] Jurkat cells and CHO cells were incubated for 5 hours at 37 degrees Celsius in a humidified 5% CO2 incubation chamber. Plates were then removed from the incubator and acclimated to room temperature for 15 minutes. 100 μL of a cell lysis and luciferase substrate solution (BioGlo luciferase reagent, Promega) were added to each well and the plates were incubated on an orbital shaker for 10 minutes. Luminescence was measured with a 1 second per well integration time using a BioTek Cytation luminometer, and a relative luminescence value (RLU) was determined for each test sample.

[2] = biological target: T1, CD28; experiment: Flow binding to Jurkat/IL2 reporter cells (CD28); parameters: host or cells: Jurkat cells expressing an IL-2-luciferase reporter; settings: for CD28 Fold change to WT CD80: MFI at 33.3 nM relative to CD80 WT IgV-Fc
Method: (§1) Binding of selected immunomodulatory fusion proteins to cognate binding partners was assessed. […] Cells were sorted in a Bio-Rad S3 Cell Sorter (Bio-Rad Corp., USA) to >98% purity. Jurkat/IL2 reporter cells, which endogenously express CD28, were used to detect binding to CD28.
(§2) For staining and analysis by flow cytometry, 100,000 cells of appropriate transfected cells were plated in 96-well round bottom plates. Cells were spun down and resuspended in staining buffer (phosphate buffered saline (PBS), 1% bovine serum albumin (BSA), and 0.1% sodium azide) for 20 minutes to block non-specific binding. […] Primary staining was performed on ice for 45 minutes, before washing cells in staining buffer twice. Phycoerythrin (PE)-conjugated anti-human Fc (Jackson ImmunoResearch, USA) was diluted 1:150, added to cells and incubated another 30 minutes on ice. Cells were then washed twice with 150 μL/well stain buffer, fixed in 2% formaldehyde/PBS, and analyzed on Intellicyt flow cytometer (Intellicyt Corp., USA). PE Mean Fluorescence Intensity (MFI) was calculated for each cell type with FlowJo Version 10 software (FlowJo LLC, USA).
(§3) Binding assays were carried out to assess the specificity and affinity of multivalent proteins to cell-expressed CTLA-4, CD28, and PD-L1 counter structures.
(§4) The EC50 for binding also was determined.

[3] = biological target: huCTLA4 (Homo sapiens, UniProt P16410); experiment: Flow binding to CHO cells stably expressing CTLA4; parameters: huCTLA4 and huPD-L1, full-length mammalian surface expression constructs were generated; expressed in transfected cells; host or cells: CHO cells, lentiviral transduction, sorted to >98% purity; settings: for CTLA4 MFI at 33.3 nM: CHO cells stably expressing CTLA4
huCTLA4, sequence (P16410 36-223): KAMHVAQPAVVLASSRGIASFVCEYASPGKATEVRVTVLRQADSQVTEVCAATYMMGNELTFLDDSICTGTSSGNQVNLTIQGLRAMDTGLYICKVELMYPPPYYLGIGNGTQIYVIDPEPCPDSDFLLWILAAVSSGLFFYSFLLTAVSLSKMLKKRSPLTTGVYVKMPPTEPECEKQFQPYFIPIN
Method: as §1, §2, §3, §4

[4] = biological target: huPD-L1 (Homo sapiens, UniProt Q9NZQ7); experiment: Flow binding to CHO cells stably expressing PD-L1; parameters: huCTLA4 and huPD-L1, full-length mammalian surface expression constructs were generated; expressed in transfected cells; host or cells: CHO cells, lentiviral transduction, sorted to >98% purity; settings: for PD-L1 MFI at 33.3 nM: CHO cells stably expressing PD-L1; for PD-L1 Fold change to WT CD80: MFI at 33.3 nM relative to CD80 WT IgV-Fc
huPD-L1, sequence (Q9NZQ7 19-290): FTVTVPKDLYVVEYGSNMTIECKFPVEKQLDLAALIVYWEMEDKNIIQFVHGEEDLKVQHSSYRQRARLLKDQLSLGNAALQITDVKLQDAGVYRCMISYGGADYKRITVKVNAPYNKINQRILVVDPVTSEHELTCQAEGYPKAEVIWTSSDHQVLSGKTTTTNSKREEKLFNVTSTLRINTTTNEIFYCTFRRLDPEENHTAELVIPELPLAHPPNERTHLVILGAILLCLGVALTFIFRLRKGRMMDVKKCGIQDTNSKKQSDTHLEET
Method: as §1, §2, §3, §4

[5] = Table E22, Jurkat/IL2 + CHO/OKT3/PD-L1, 5.0 nM
[6] = Table E22, Jurkat/IL2 + CHO/OKT3/PD-L1, CD80 Conc 5.0 nM
[7] = Table E20, Jurkats (CD28), 33.3 nM
[8] = Table E20, MFI at 33.3 nM relative to CD80 WT IgV-Fc
[9] = Table E20, ratio of MFI at 33.3 nM
[10] = Table E24, Jurkat/IL2 + CHO/OKT3/PD-L1, 5.0 nM
[11] = Table E23, CD80 IgV-Fc (inert) at 33.3 nM, Jurkat (CD28)
[12] = Table E23, CD80 IgV-Fc (inert) at 33.3 nM
[13] = Table E23, MFI at 33.3 nM relative to CD80 WT IgV-Fc
[14] = Table E23, ratio of MFI at 33.3 nM
[15] = Table E15, CHO/OKT3/PD-L1, 5.0 nM
[16] = Table E14, 33.3 nM, listed as CD80 WT IgV-Fc = 1.0

| Substance | Fold Increase over WT CD80-IgV-Fe [1, 5] | Relative Luciferase Units (RLU), CD80 Conc 5.0 nM [1, 6] | CD28 MFI at 33.3 nM [2, 7] | CD28 Fold change to WT CD80 ([2]; Table E20) | CTLA4 MFI at 33.3 nM ([3]; Table E20, 33.3 nM) | CTLA4 Fold change to WT CD80 [3, 8] | PD-L1 MFI at 33.3 nM ([4]; Table E20, 33.3 nM) | PD-L1 Fold change to WT CD80 ([4]; Table E20) | Ratio of PDL1:CD28 [4, 9] | further results |
| --- | --- | --- | --- | --- | --- | --- | --- | --- | --- | --- |
| H18Y/A26E/E35D/M47L/A71G | 2.42 fold | 944 RLU | 379 | 8.6 fold | 19353 | 14.2 fold | 16887 | 387.3 fold | 44.6 | – |
| H18A/A26P/E35D/M47L/V68M/A71G/D90G | – | – | – | – | – | – | – | – | – | Fold Increase over WT CD80-IgV-Fe [1, 10]: 5.0; Relative Luciferase Units (RLU), CD80 Conc 5.0 nM [1, 10]: 857 RLU; CD28 MFI at 33.3 nM [2, 11]: 4731; CD28 Fold change to WT CD80 ([2]; Table E23): 46.4; CTLA4 MFI at 33.3 nM [3, 12]: 23763; CTLA4 Fold change to WT CD80 [3, 13]: 17.2; PD-L1 MFI at 33.3 nM [4, 12]: 33436; PD-L1 Fold change to WT CD80 ([4]; Table E23): 202.6; Ratio of PDL1:CD28 [4, 14]: 7.1 |
| H18Y/A26E/M47L/V68M/A71G/D90G | 2.19 fold | 853 RLU | 2556 | 58.2 fold | 121 | 0.1 fold | 31716 | 727.4 fold | 12.4 | – |
| H18Y/A26E/M47L/V68M/D90G | 2.76 fold | 1075 RLU | 32 | 0.7 fold | 28649 | 21.1 fold | 23594 | 541.1 fold | 737.3 | – |
| H18Y/A26E/E35D/M47L/D90G | 2.37 fold | 925 RLU | 1379 | 31.4 fold | 19736 | 14.5 fold | 12698 | 291.2 fold | 9.2 | – |
| H18Y/A26E/E35D/M47L/V68M/D90G | 2.29 fold | 893 RLU | 2675 | 60.9 fold | 24855 | 18.3 fold | 25217 | 578.4 fold | 9.4 | – |
| H18V/A26S/E35D/M47L/V68M/A71G/D90G | – | – | – | – | – | – | – | – | – | Fold Increase over WT CD80-IgV-Fe [1, 10]: 5.2; Relative Luciferase Units (RLU), CD80 Conc 5.0 nM [1, 10]: 883 RLU; CD28 MFI at 33.3 nM [2, 11]: 8063; CD28 Fold change to WT CD80 ([2]; Table E23): 79.0; CTLA4 MFI at 33.3 nM [3, 12]: 24919; CTLA4 Fold change to WT CD80 [3, 13]: 18.0; PD-L1 MFI at 33.3 nM [4, 12]: 73884; PD-L1 Fold change to WT CD80 ([4]; Table E23): 447.8; Ratio of PDL1:CD28 [4, 14]: 9.2 |
| H18Y/A26E/V68M/A71G/D90G | 2.50 fold | 974 RLU | 2683 | 61.1 fold | 18305 | 13.5 fold | 27872 | 639.3 fold | 10.4 | – |
| H18Y/A26E/E35D/A71G/D90G | 2.45 fold | 956 RLU | 1075 | 24.5 fold | −100 | −0.1 fold | 14822 | 340.0 fold | 13.8 | – |
| H18Y/A26E/E35D/V68M/D90G | 2.69 fold | 1049 RLU | 2584 | 58.9 fold | 19331 | 14.2 fold | 23206 | 532.2 fold | 9.0 | – |
| A26E/E35D/M47L/V68M/A71G/D90G | 2.86 fold | 1117 RLU | 2211 | 50.4 fold | 21749 | 16.0 fold | 30232 | 693.4 fold | 13.7 | – |
| deltaE10-A98: variant CD80 IgV-Fc, IgV SEQ ID NO:545 (VIHVTKEVKEVTLSVKAD; not fully specified) | – | – | – | – | – | – | – | – | – | Fold Increase over WT CD80-IgV-Fe [1, 15]: 0.3; Relative Luciferase Units (RLU), CD80-Fe Cone 5.0 nM [1, 15]: 137 RLU; CD28 Fold change to WT [2, 16]: 0.4; CD28 MFI at 33.3 nM ([2]; Table E14, Jurkats (CD28), 33.3 nM): 15; CTLA4 Fold change to WT CD80 [3, 16]: 0.1; CTLA4 MFI at 33.3 nM ([3]; Table E14, 33.3 nM): 125; PD-L1 Fold change to WT [4, 16]: 0.5; PD-L1 MFI at 33.3 nM ([4]; Table E14, 33.3 nM): 45; Ratio of PDL1:CD28 ([4]; Table E14, MFI at 33.3 nM): 3 |
| H18A/A26N/E35D/M47L/V68M/A71G/D90G | – | – | – | – | – | – | – | – | – | Fold Increase over WT CD80-IgV-Fe [1, 10]: 6.2; Relative Luciferase Units (RLU), CD80 Conc 5.0 nM [1, 10]: 1054 RLU; CD28 MFI at 33.3 nM [2, 11]: 4913; CD28 Fold change to WT CD80 ([2]; Table E23): 48.2; CTLA4 MFI at 33.3 nM [3, 12]: 21360; CTLA4 Fold change to WT CD80 [3, 13]: 15.4; PD-L1 MFI at 33.3 nM [4, 12]: 36284; PD-L1 Fold change to WT CD80 ([4]; Table E23): 219.9; Ratio of PDL1:CD28 [4, 14]: 7.4 |

Reference: US20220177587A1, “METHODS AND USES OF VARIANT CD80 FUSION PROTEINS AND RELATED CONSTRUCTS” (Alpine Immune Sciences, Inc., priority 2018, published 2022)
